# Reference: the RNAGym collection of RNA variant scans (doi:10.7554/elife.80360)
# B1: HDV Ribozyme (parent)
# chain: GGCCGGCAUGGUCCCAGCCUCCUCGCUGGCGCCGGCUGGGCAACAUUCCGAGGGGACCGUCCCCUCGGUAAUGGCGAAUGGGACCCA
# Variants of: B1
# Assay: self-cleavage, relative activity (ratio to wild type); higher = more cleavage; co-transcriptional
row,Variant,self-cleavage
1,GGCCGGCAUGGUCCCAGCCUCCUGGCUGGCGCCGGCUGGGCACCAUUCCGAGGGGACCGUCCCCUCGGUAAUGGCGAAUGGGACCCA,0.0811
2,GGCCGGCAUGGUCCCAGCCUCCUGGCUGGCGCCGGCUGGGCAUCAUUCCGAGGGGACCGUCCCCUCGGUAAUGGCGAAUGGGACCCA,0.0237
3,GGCCGGCAUGGUCCCAGCCUCCUGGCUGGCGCCGGCUGGGCAACAUUCCGAGGGGACCGUCGCCUCGGUAAUGGCGAAUGGGACCCA,0.0415
4,GGCCGGCAUGGUCCCAGCCUCCUGGCUGGCGCCGGCUGGGCAACAUUCCGAGGGGACCGUCUCCUCGGUAAUGGCGAAUGGGACCCA,0.142
5,GGCCGGCAUGGUCCCAGCCUCCUGGGUGGCGCCGGCUGGGCAACAUUCCGAGGGGACCGUCCCCUCGGUAAUGGCGAAUGGGACCCA,0.277
6,GGCCGGCAUGGUCCCAGCCUCCUGGUUGGCGCCGGCUGGGCAACAUUCCGAGGGGACCGUCCCCUCGGUAAUGGCGAAUGGGACCCA,0.514
7,GGCCGGCAUGGUCCCAGCCUCCUAGCUGGCGCCGGCUGGGCAACAUUCCGAGGGGACCGUCCCCACGGUAAUGGCGAAUGGGACCCA,0.735
8,GGCCGGCAUGGUCCCAGCCUCCUAGCUGGCGCCGGCUGGGCAACAUUCCGAGGGGACCGUCCCCGCGGUAAUGGCGAAUGGGACCCA,0.511
9,GGCCGGCAUGGUCCCAGCCUCCUGGCUGGCGCCGGCUGGGCAACAUUCCGAGGGGACCGUCCCCUGGGUAAUGGCGAAUGGGACCCA,0.13
10,GGCCGGCAUGGUCCCAGCCUCCUGGCUGGCGCCGGCUGGGCAACAUUCCGAGGGGACCGUCCCCUUGGUAAUGGCGAAUGGGACCCA,0.166
11,GGCCGGCAUGGUCCCAGCCUCCUGGCUGGCGCCGGCUGGGCAACAUUCGGAGGGGACCGUCCCCUCGGUAAUGGCGAAUGGGACCCA,0.0314
12,GGCCGGCAUGGUCCCAGCCUCCUGGCUGGCGCCGGCUGGGCAACAUUCAGAGGGGACCGUCCCCUCGGUAAUGGCGAAUGGGACCCA,0.0804
13,GGCCGGCAUGGUCCCAGCCUCCUGGCUGGCGCCGGCUGGGCAACAUUCCGAGGGGACCGUCCCCUCGGUUAUGGCGAAUGGGACCCA,0.0627
14,GGCCGGCAUGGUCCCAGCCUCCUGGCUGGCGCCGGCUGGGCAACAUUCCGAGGGGACCGUCCCCUCGGUCAUGGCGAAUGGGACCCA,0.0978
15,GGCCGGCAUGGUCCCAGCCUCCUAGCUGGCGCCGGCUGGGCAACAUUCCGAGGGGACCGCCCCCUCGGUAAUGGCGAAUGGGACCCA,0.702
16,GGCCGGCAUGGUCCCAGCCUCCUAGCUGGCGCCGGCUGGGCAACAUUCCGAGGGGACCGGCCCCUCGGUAAUGGCGAAUGGGACCCA,0.678

row,Variant,self-cleavage
1,GGCCGGCAUGGUCCCAGCCUCCUGGCUGGCGCCGGCUGGGCAACAUUCCGGGGGGACCGUCCCCUCGGUAAUGGCGAAUGGGACCCA,0.111
2,GGCCGGCAUGGUCCCAGCCUCCUGGCUGGCGCCGGCUGGGCAACAUUCCGUGGGGACCGUCCCCUCGGUAAUGGCGAAUGGGACCCA,0.237
3,GGCCGGCAUGGUCCCAGCCUCCUGGCUGGCGCCGGUUGGGCAACAUUCCGAGGGGACCGUCCCCUCGGUAAUGGCGAAUGGGACCCA,0.0627
4,GGCCGGCAUGGUCCCAGCCUCCUAGCUGGCGCCGGCAGGGCAACAUUCCGAGGGGACCGUCCCCUCGGUAAUGGCGAAUGGGACCCA,0.145
5,GGCCGGCAUGGUCCCAGCCUCCUAGCUGGCGCCGGCGGGGCAACAUUCCGAGGGGACCGUCCCCUCGGUAAUGGCGAAUGGGACCCA,0.142
6,GGCCGGCAUGGUCCCAGCCUCCUAGCUGGCGCCGGCCGGGCAACAUUCCGAGGGGACCGUCCCCUCGGUAAUGGCGAAUGGGACCCA,0.974
7,GGCCGGCAUGGUCCCAGCCUCCUAGCUGGCGCCGGCUGGGCAACAUUCCGAGGGGACCGUCCCCUCGGAAAUGGCGAAUGGGACCCA,0.635
8,GGCCGGCAUGGUCCCAGCCUCCUAGCUGGCGCCGGCUGGGCAACAUUCCGAGGGGACCGUCCCCUCGGUAAUGGCGAAUGGUACCCA,0.328
9,GGCCGGCAUGGUCCCAGCCUCCUGGCUGGCGCGGGCUGGGCAACAUUCCGAGGGGACCGUCCCCUCGGUAAUGGCGAAUGGGACCCA,0.0475
10,GGCCGGCAUGGUCCCAGCCUCCUGGCUGGCGCAGGCUGGGCAACAUUCCGAGGGGACCGUCCCCUCGGUAAUGGCGAAUGGGACCCA,0.244
11,GGCCGGCAUGGUCCCAGCCUCCUGGCUGGCGCCGGCUGGGCAACAUUCCGAGGGGACCGUCCCGUCGGUAAUGGCGAAUGGGACCCA,0.131
12,GGCCGGCAUGGUCCCAGCCUCCUGGCUGGCGCCGGCUGGGCAACAUUCCGAGGGGACCGUCCCUUCGGUAAUGGCGAAUGGGACCCA,0.0886
13,GGCCGGCAUGGUCCCAGCCUCCUGGCUGGCGCCGGCUGGGAAACAUUCCGAGGGGACCGUCCCCUCGGUAAUGGCGAAUGGGACCCA,0.113
14,GGCCGGCAUGGUCCCAGCCUCCUGGCUGGCGCCGGCUGGGCAACAUUCCGAGGGGACCGUUCCCUCGGUAAUGGCGAAUGGGACCCA,0.166
15,GGCCGGCAUGGUCCCAGCCUCCUGGCUGGCGCCGGCUGGGCAACAUUACGAGGGGACCGUCCCCUCGGUAAUGGCGAAUGGGACCCA,0.0519
16,GGCCGGCAUGGUCCCAGCCUCCUGGCUGGCGCCGGCUGGGCAACAUUUCGAGGGGACCGUCCCCUCGGUAAUGGCGAAUGGGACCCA,0.14
